Square brackets hold non-standard residues; d marks the D form. GABA = NCCCC(=O)O

Experiment in all cases: peptide library pulldown on immobilized Nb, LC-MS of supernatant; ratio vs GFP-Nb control (1 = not captured, 0 = captured)
In experiment [1] the target is T1, BC2T Q12H library peptide (human).
T1 peptide: Ac-PDRKAAVSHWQH-NH2
In a few lines: (§1)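 Unbound peptide left in supernatant after 1 h pulldown in PBS/0.01% CHAPS measured by reversed-phase LC-MS (8–30% eluent B gradient, 20 min).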

Experiment [2] addresses T2, BC2T S8W library peptide (human).
T2 construct: also called BC2TS8X: W
T2 peptide: Ac-PDRKAAVWHWQQ-NH2
In a few lines: as §1

Experiment [3] has as its target T3, BC2T S8Y library peptide (human).
T3 construct: also called BC2TS8X: Y
T3 peptide: Ac-PDRKAAVYHWQQ-NH2
The method in brief:
as §1

Experiment [4] addresses T4, BC2T H9(I/L) library peptide, version 1 (N-terminal acetyl, C-terminal amide).
T4 construct: Ile and Leu versions are isobaric; two versions resolved but not assigned; also called I/L1
The method in brief:
as §1

Experiment [5] deals with T5, BC2T H9P library peptide (human).
T5 peptide: Ac-PDRKAAVSPWQQ-NH2
The method in brief: as §1

The target of experiment [6] is T6, BC2T H9W library peptide (human).
T6 peptide: Ac-PDRKAAVSWWQQ-NH2
The method in brief:
as §1

Experiment [7] has as its target T7, BC2T H9S library peptide (human).
T7 peptide: Ac-PDRKAAVSSWQQ-NH2
In a few lines: as §1

Experiment [8] has as its target T8, BC2T W10(I/L) library peptide, version 1 (N-terminal acetyl, C-terminal amide).
T8 construct: Ile and Leu versions are isobaric; two versions resolved but not assigned; also called BC2TW10X: I/L1
The method in brief: as §1

Experiment [9] deals with T9, BC2T W10M library peptide (human).
T9 construct: also called BC2TW10X: M
T9 peptide: Ac-PDRKAAVSHMQQ-NH2
The method in brief:
as §1

Experiment [10] concerns the target T10, BC2T W10F library peptide (human).
T10 construct: also called BC2TW10X: F
T10 peptide: Ac-PDRKAAVSHFQQ-NH2
The method in brief: as §1

Experiment [11] concerns the target T11, BC2T W10R library peptide (human).
T11 construct: also called BC2TW10X: R
T11 peptide: Ac-PDRKAAVSHRQQ-NH2
The method in brief: as §1

The target of experiment [12] is T12, BC2T Q11S library peptide (human).
T12 peptide: Ac-PDRKAAVSHWSQ-NH2
The method in brief:
as §1

The target in experiment [13] is T13, BC2T Q11R library peptide (human).
T13 peptide: Ac-PDRKAAVSHWRQ-NH2
The method in brief: as §1

Experiment [14] addresses T14, BC2T Q11H library peptide (human).
T14 peptide: Ac-PDRKAAVSHWHQ-NH2
In a few lines:
as §1

The target in experiment [15] is T15, BC2T Q12A library peptide (human).
T15 peptide: Ac-PDRKAAVSHWQA-NH2
The method in brief:
as §1

The target of experiment [16] is T16, BC2T Q12(I/L) library peptide, version 2 (N-terminal acetyl, C-terminal amide).
T16 construct: Ile and Leu versions are isobaric; two versions resolved but not assigned; also called I/L2
The method in brief: as §1

Experiment [17] addresses T17, BC2T Q12T library peptide (human).
T17 peptide: Ac-PDRKAAVSHWQT-NH2
In a few lines:
as §1

Experiment [18] deals with T18, BC2T Q12C* library peptide (human, SMILES …).
T18 construct: also called C(Abu)
T18 peptide: Ac-PDRKAAVSHWQ[GABA]-NH2
In a few lines:
as §1

The target in experiment [19] is T19, BC2T Q12R library peptide (human).
T19 peptide: Ac-PDRKAAVSHWQR-NH2
The method in brief:
as §1

B1: BC2-Nb(R106E) (VHH)
VHH: QVQLVESGGGLVQPGGSLTLSCTASGFTLDHYDIGWFRQAPGKEREGVSCINNSDDDTYYADSVKGRFTIFMDNAKDTVYLQMNSLKPEDTAIYYCAEARGCKRGEYEYDFWGQGTQVTVSS
notes: Headlock mutant; immobilized on beads in the library pulldown
Turning to B1, the ratio in [1] turned out to be 0.1; in experiment [2], 0.9; in experiment [3], 0.9; in [4], 0.4; in [5] it was 0.9; in experiment [6], 0.1. Moreover, the ratio was found to be 0.4 in [7]; 1 in experiment [8]; 1.1 in experiment [9]; 1 in experiment [10]; 1.3 in [11]; 0.2 in experiment [12]. The ratio in experiment [13] came out at 0.1; in [14] it was 0.2; in experiment [15], 0.1; in experiment [16], 0.1; in [17], 0.1; in experiment [18] it was 0.1. In addition, the ratio in [19] was 0.

The values are drawn from patent US20170137467A1 (CHROMOTEK, published 2017).
